Test results reported in publication PMC7455559.

Molecular target: connexin-50 (native, sheep lens) (sheep) (UniProt P55917)
Assay: cryo-EM structure; native Cx46/50 intercellular channels from sheep lens in a pair of MSP1E1/DMPC nanodiscs; 20 mM HEPES pH 7.4, 150 mM NaCl; single-particle reconstruction with D6 symmetry, 1.90 Å (2.3 Å without symmetry); the two isoforms could not be told apart by image classification

connexin-46 (native, sheep lens) (from UniProt Q9TU17 1-413) (natural protein)
subunits in the intercellular channel (Cx46 and Cx50 together): 12
